Holding throughout (assay): EMSA
What all share (conditions): 5x buffer (3 uL in 14 uL): 20% glycerol, 5 mM MgCl2, 2.5 mM EDTA, 2.5 mM DTT, 250 mM NaCl, 50 mM Tris-HCl pH 7.5, 0.25 mg/ml poly(dI-dC); 0.5 ug protein; 10 min
(Mobility shift assays separate free from complexed probe on a gel.)

Series [1] addresses GST-AtWRKY50-C;TGA2-His (Arabidopsis thaliana;Arabidopsis thaliana) (UniProt Q8VWQ5+P43273).
In series [2] the target is T1, TGA2-His (Arabidopsis thaliana) (UniProt P43273).
T1 sequence: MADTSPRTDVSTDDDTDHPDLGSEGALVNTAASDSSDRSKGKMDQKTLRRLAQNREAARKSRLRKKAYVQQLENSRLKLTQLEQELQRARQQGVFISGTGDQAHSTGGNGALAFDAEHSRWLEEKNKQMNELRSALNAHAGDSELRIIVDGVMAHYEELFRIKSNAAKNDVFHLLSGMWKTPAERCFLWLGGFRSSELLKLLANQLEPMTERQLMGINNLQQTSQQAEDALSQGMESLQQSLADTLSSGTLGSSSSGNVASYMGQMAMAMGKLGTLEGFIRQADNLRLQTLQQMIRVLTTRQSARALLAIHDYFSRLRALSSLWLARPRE

Series [3] concerns the target GST-AtWRKY50-C (Arabidopsis thaliana) (UniProt Q8VWQ5).

Chain of GST-AtWRKY50-C (Arabidopsis thaliana) (Q8VWQ5 86-173): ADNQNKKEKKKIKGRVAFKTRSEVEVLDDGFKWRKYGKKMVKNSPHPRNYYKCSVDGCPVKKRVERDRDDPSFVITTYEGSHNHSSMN
Chain of GST-AtWRKY50-C;TGA2-His (Arabidopsis thaliana;Arabidopsis thaliana) (Q8VWQ5 86-173, one chain of several): as the sequence (Q8VWQ5 86-173) above

“TTTCTCTACGTCACTATTTTACTTACGTCATAGATGTGGCGGCATATATTCTTCAGGACTTTTCAGATCTAGGC (double strand) [BCD]”: the binding entry in series [1], in series [2] and in series [3] was “binds” throughout.

Take “ATCGGATCCGGTGATCTATTGACTGTTTCTCTACGTCACTATTTTACTTACGTCATAGATGTGGCGGCATATA (double strand) [ABC]”: the binding entry in series [2] and in series [3] was “binds” in each case.

In the case of “CTCTACGCAACTATTTTACTTACGTCATAGATGTGGCGGCATATATTCTTCAGGACTTTTCAGATCTAGGC (double strand) [BCDm1]”, the binding entry in series [1] and in series [2] was “binds” each time.

As for “CATCTATTGCGTAAGTAAAATAGTGACGTAGAGAAACAGTCAATAGATCACCGGATCCGAT (double strand) [ABCm2]”, in series [2], the binding entry is on record as “binds more weakly”.

For the origin of these results see article PMC6053526.
